Measured values reported in PMC9741652, “CRL2^ZER1/ZYG11B recognizes small N-terminal residues for degradation” (Nature Communications, 2022).

B1: SFLHVGQDGLELPTS peptide (15-mer, position 1 Ser) (peptide)
peptide: SFLHVGQDGLELPTS
notes: numbers count on: the peptide; Spot on a cellulose membrane; also called Nt-Ser (SPOT array); source: synthetic peptide, synthesized on cellulose membrane (SPOT array)
B2: GFLHVGQDGLELPTS peptide (15-mer from the N-terminus of ZNF701) (peptide)
peptide: GFLHVGQDGLELPTS
notes: 15-mer derived from the N-terminus of ZNF701; Spot on a cellulose membrane; also called Nt-Gly (SPOT array); source: synthetic peptide, synthesized on cellulose membrane (SPOT array)
B3: AFLHVGQDGLELPTS peptide (15-mer, position 1 Ala) (peptide)
peptide: AFLHVGQDGLELPTS
notes: numbers count on: the peptide; Spot on a cellulose membrane; also called Nt-Ala (SPOT array); source: synthetic peptide, synthesized on cellulose membrane (SPOT array)
B4: TFLHVGQDGLELPTS peptide (15-mer, position 1 Thr) (peptide)
peptide: TFLHVGQDGLELPTS
notes: numbers count on: the peptide; Spot on a cellulose membrane; also called Nt-Thr (SPOT array); source: synthetic peptide, synthesized on cellulose membrane (SPOT array)

biological target: T1, GST-fused ZYG11B (residues 490–744) (UniProt Q9C0D3 490-744); test: peptide or protein array; peptide SPOT array on cellulose membrane; purified GST-tagged ZER1 (50 nM) or ZYG11B (230 nM) in 10% glycerol, 0.1 M KCl, 1 mM EDTA, 20 mM HEPES pH 7.5, 1 h at room temperature; detected with anti-GST by chemiluminescence; conditions: both partners purified
T1 construct: ZYG11B, residues 490-744; Vector pACYC-GST is Addgene Plasmid #62329; also called GST-tagged ZYG11B_(490–744); source: purified; cloned into pACYC-GST
T1 sequence (Q9C0D3 490-744): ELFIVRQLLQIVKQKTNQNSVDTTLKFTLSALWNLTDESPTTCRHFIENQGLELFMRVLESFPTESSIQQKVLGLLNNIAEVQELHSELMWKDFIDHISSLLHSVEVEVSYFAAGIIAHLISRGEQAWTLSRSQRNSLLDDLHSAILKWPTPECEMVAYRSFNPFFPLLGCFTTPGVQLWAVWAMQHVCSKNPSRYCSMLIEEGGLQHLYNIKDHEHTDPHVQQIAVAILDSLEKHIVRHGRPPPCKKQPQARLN

binding result | Binder
binds | B1
binds | B2
binds | B3

biological target: T2, GST-fused ZER1 (residues 469–766) (human, UniProt Q7Z7L7 469-766); test: as above; conditions: both partners purified
T2 construct: ZER1, human, residues 469-766; Vector pACYC-GST is Addgene Plasmid #62329; also called GST-tagged ZER1_(469–766); source: purified; cloned into pACYC-GST
T2 sequence (Q7Z7L7 469-766): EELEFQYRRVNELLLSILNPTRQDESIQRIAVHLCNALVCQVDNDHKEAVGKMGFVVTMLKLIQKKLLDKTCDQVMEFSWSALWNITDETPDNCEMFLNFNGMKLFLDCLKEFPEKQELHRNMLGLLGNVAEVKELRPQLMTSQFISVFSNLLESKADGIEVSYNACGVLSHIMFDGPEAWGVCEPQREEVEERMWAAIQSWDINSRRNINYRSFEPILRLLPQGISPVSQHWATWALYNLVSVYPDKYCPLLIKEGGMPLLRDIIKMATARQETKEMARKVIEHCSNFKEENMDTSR

binding result | Binder
binds | B1
binds | B4
binds | B3
